Assay results published in patent publication US20260008817A1, “CYCLIC PEPTIDE OR SALT THEREOF, AND USES THEREOF” (FUJIFILM Corporation, priority 2023, published 2026).
Positions of bridges follow the written chain, without caps; N, C: chain ends. No end group written: not given here. COCH2 = acetyl group that carries the bridge

Biological target: T1, Recombinant Human FGFR1 alpha (IIIc) Fc Chimera Protein (Homo sapiens, UniProt P11362)
T1 construct: purchased R&D systems 658-FR-050
Assay: ELISA binding affinity of enzymatically synthesized peptide to FGFR
Details: ELISA luminescence signal at 10 nmol/L peptide, SEQ ID NO: 239 standardized to 1; enzyme synthesis product
Method in brief: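 Cell-free PUREfrex-translated cyclic peptides (Myc/HiBiT-tagged, quantified by HiBiT luminescence) bound 3 h at room temperature to immobilized FGFR1α(IIIc)-Fc, detected with anti-Myc and chemiluminescence. FGFR-specific signal at 10 nmol/L normalized to a reference cyclic peptide and graded A–D.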

T1 sequence (P11362 with tags, fused parts or gaps limits assumed): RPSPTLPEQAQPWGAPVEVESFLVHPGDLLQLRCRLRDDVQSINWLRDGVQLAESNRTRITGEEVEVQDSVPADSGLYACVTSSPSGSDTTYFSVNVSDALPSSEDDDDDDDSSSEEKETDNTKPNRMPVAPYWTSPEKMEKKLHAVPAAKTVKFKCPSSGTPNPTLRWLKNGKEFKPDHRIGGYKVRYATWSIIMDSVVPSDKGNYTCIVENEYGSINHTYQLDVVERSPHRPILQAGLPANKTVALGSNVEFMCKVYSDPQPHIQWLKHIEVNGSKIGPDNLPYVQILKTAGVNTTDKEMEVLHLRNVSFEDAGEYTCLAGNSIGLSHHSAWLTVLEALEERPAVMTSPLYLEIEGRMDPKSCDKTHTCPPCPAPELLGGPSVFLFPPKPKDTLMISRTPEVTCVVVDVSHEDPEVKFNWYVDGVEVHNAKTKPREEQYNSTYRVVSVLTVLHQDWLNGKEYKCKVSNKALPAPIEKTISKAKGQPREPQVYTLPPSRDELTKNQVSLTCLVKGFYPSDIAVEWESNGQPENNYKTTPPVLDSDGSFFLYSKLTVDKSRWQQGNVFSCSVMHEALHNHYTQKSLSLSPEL

**Q.** Which “Evaluation result of binding affinity to FGFR” value (shortened to “Evaluation result”) does the source give for “130 (ICVYTFDAHHHSLHAALTKI; Description of Artificial Sequence: Cyclic peptide) [compound 130]” here?
**A.** The value was “C (0.1 or more and less than 0.5)”.

**Q.** How did the “Evaluation result” value turn out when “131 (ICVYTFDAHAASLHAALTKI; Description of Artificial Sequence: Cyclic peptide) [compound 131]” was run?
**A.** Its value is “A (0.7 or more)”.

**Q.** “132 (ICVYTFDAHAGSLHAALTKI; Description of Artificial Sequence: Cyclic peptide) [compound 132]” was tested. Which “Evaluation result” value did it give?
**A.** Its value is “A (0.7 or more)”.

**Q.** “133 (ICVYTFDAHAPSLHAALTKI; Description of Artificial Sequence: Cyclic peptide) [compound 133]” was tested. Which “Evaluation result” value did it give?
**A.** The value was “A (0.7 or more)”.

**Q.** For “134 (ICVYTFDAHALSLHAALTKI; Description of Artificial Sequence: Cyclic peptide) [compound 134]”, which “Evaluation result” value is on record?
**A.** Its value is “A (0.7 or more)”.

**Q.** For “135 (ICVYTFDAHAISLHAALTKI; Description of Artificial Sequence: Cyclic peptide) [compound 135]”, which “Evaluation result” value is on record?
**A.** The value was “B (0.5 or more and less than 0.7)”.

**Q.** How did the “Evaluation result” value turn out when “136 (ICVYTFDAHAVSLHAALTKI; Description of Artificial Sequence: Cyclic peptide) [compound 136]” was run?
**A.** Its value is “A (0.7 or more)”.

**Q.** “137 (ICVYTFDAHAFSLHAALTKI; Description of Artificial Sequence: Cyclic peptide) [compound 137]” was tested. Which “Evaluation result” value did it give?
**A.** The value was “C (0.1 or more and less than 0.5)”.

**Q.** Which “Evaluation result” value does the source give for “138 (ICVYTFDAHAYSLHAALTKI; Description of Artificial Sequence: Cyclic peptide) [compound 138]” here?
**A.** The value was “C (0.1 or more and less than 0.5)”.

**Q.** With “139 (ICVYTFDAHAWSLHAALTKI; Description of Artificial Sequence: Cyclic peptide) [compound 139]” as the substance, how does the “Evaluation result” value read?
**A.** The value was “C (0.1 or more and less than 0.5)”.

**Q.** Which “Evaluation result” value does the source give for “140 (ICVYTFDAHANSLHAALTK(COCH2)I; thioether 2-19 (inferred)) [compound 140]” here?
**A.** The value was “A (0.7 or more)”.

**Q.** Which “Evaluation result” value does the source give for “141 (ICVYTFDAHAQSLHAALTK(COCH2)I; thioether 2-19 (inferred)) [compound 141]” here?
**A.** The value was “A (0.7 or more)”.

**Q.** How did the “Evaluation result” value turn out when “142 (ICVYTFDAHASSLHAALTK(COCH2)I; thioether 2-19 (inferred)) [compound 142]” was run?
**A.** The value was “A (0.7 or more)”.

**Q.** Which “Evaluation result” value does the source give for “143 (ICVYTFDAHATSLHAALTK(COCH2)I; thioether 2-19 (inferred)) [compound 143]” here?
**A.** The value was “A (0.7 or more)”.

**Q.** How did the “Evaluation result” value turn out when “144 (ICVYTFDAHADSLHAALTK(COCH2)I; thioether 2-19 (inferred)) [compound 144]” was run?
**A.** The value was “A (0.7 or more)”.

**Q.** “145 (ICVYTFDAHAESLHAALTK(COCH2)I; thioether 2-19 (inferred)) [compound 145]” was tested. Which “Evaluation result” value did it give?
**A.** The value was “A (0.7 or more)”.

**Q.** With “146 (ICVYTFDAHARSLHAALTK(COCH2)I; thioether 2-19 (inferred)) [compound 146]” as the substance, how does the “Evaluation result” value read?
**A.** Its value is “A (0.7 or more)”.

**Q.** How did the “Evaluation result” value turn out when “147 (ICVYTFDAHAHALHAALTK(COCH2)I; thioether 2-19 (inferred)) [compound 147]” was run?
**A.** The value was “B (0.5 or more and less than 0.7)”.

**Q.** Which “Evaluation result” value does the source give for “148 (ICVYTFDAHAHGLHAALTK(COCH2)I; thioether 2-19 (inferred)) [compound 148]” here?
**A.** The value was “C (0.1 or more and less than 0.5)”.

**Q.** With “149 (ICVYTFDAHAHLLHAALTK(COCH2)I; thioether 2-19 (inferred)) [compound 149]” as the substance, how does the “Evaluation result” value read?
**A.** The value was “C (0.1 or more and less than 0.5)”.

**Q.** With “150 (ICVYTFDAHAHILHAALTK(COCH2)I; thioether 2-19 (inferred)) [compound 150]” as the substance, how does the “Evaluation result” value read?
**A.** Its value is “C (0.1 or more and less than 0.5)”.

**Q.** With “151 (ICVYTFDAHAHVLHAALTK(COCH2)I; thioether 2-19 (inferred)) [compound 151]” as the substance, how does the “Evaluation result” value read?
**A.** Its value is “C (0.1 or more and less than 0.5)”.

**Q.** “152 (ICVYTFDAHAHFLHAALTK(COCH2)I; thioether 2-19 (inferred)) [compound 152]” was tested. Which “Evaluation result” value did it give?
**A.** Its value is “C (0.1 or more and less than 0.5)”.

**Q.** For “153 (ICVYTFDAHAHYLHAALTK(COCH2)I; thioether 2-19 (inferred)) [compound 153]”, which “Evaluation result” value is on record?
**A.** Its value is “C (0.1 or more and less than 0.5)”.

**Q.** How did the “Evaluation result” value turn out when “154 (ICVYTFDAHAHWLHAALTK(COCH2)I; thioether 2-19 (inferred)) [compound 154]” was run?
**A.** The value was “C (0.1 or more and less than 0.5)”.

**Q.** For “155 (ICVYTFDAHAHNLHAALTK(COCH2)I; thioether 2-19 (inferred)) [compound 155]”, which “Evaluation result” value is on record?
**A.** The value was “A (0.7 or more)”.

**Q.** “156 (ICVYTFDAHAHQLHAALTK(COCH2)I; thioether 2-19 (inferred)) [compound 156]” was tested. Which “Evaluation result” value did it give?
**A.** Its value is “A (0.7 or more)”.

**Q.** “157 (ICVYTFDAHAHTLHAALTK(COCH2)I; thioether 2-19 (inferred)) [compound 157]” was tested. Which “Evaluation result” value did it give?
**A.** The value was “A (0.7 or more)”.

**Q.** For “158 (ICVYTFDAHAHDLHAALTK(COCH2)I; thioether 2-19 (inferred)) [compound 158]”, which “Evaluation result” value is on record?
**A.** Its value is “A (0.7 or more)”.

**Q.** For “159 (ICVYTFDAHAHELHAALTK(COCH2)I; thioether 2-19 (inferred)) [compound 159]”, which “Evaluation result” value is on record?
**A.** Its value is “A (0.7 or more)”.

**Q.** How did the “Evaluation result” value turn out when “160 (ICVYTFDAHAHRLHAALTK(COCH2)I; thioether 2-19 (inferred)) [compound 160]” was run?
**A.** Its value is “C (0.1 or more and less than 0.5)”.

**Q.** With “161 (ICVYTFDAHAHHLHAALTK(COCH2)I; thioether 2-19 (inferred)) [compound 161]” as the substance, how does the “Evaluation result” value read?
**A.** The value was “C (0.1 or more and less than 0.5)”.

**Q.** How did the “Evaluation result” value turn out when “162 (ICVYTFDAHAHSAHAALTK(COCH2)I; thioether 2-19 (inferred)) [compound 162]” was run?
**A.** Its value is “A (0.7 or more)”.

**Q.** For “163 (ICVYTFDAHAHSGHAALTK(COCH2)I; thioether 2-19 (inferred)) [compound 163]”, which “Evaluation result” value is on record?
**A.** The value was “C (0.1 or more and less than 0.5)”.

**Q.** With “164 (ICVYTFDAHAHSPHAALTK(COCH2)I; thioether 2-19 (inferred)) [compound 164]” as the substance, how does the “Evaluation result” value read?
**A.** The value was “C (0.1 or more and less than 0.5)”.

**Q.** For “165 (ICVYTFDAHAHSIHAALTK(COCH2)I; thioether 2-19 (inferred)) [compound 165]”, which “Evaluation result” value is on record?
**A.** Its value is “A (0.7 or more)”.

**Q.** Which “Evaluation result” value does the source give for “166 (ICVYTFDAHAHSVHAALTK(COCH2)I; thioether 2-19 (inferred)) [compound 166]” here?
**A.** Its value is “A (0.7 or more)”.

**Q.** How did the “Evaluation result” value turn out when “167 (ICVYTFDAHAHSFHAALTK(COCH2)I; thioether 2-19 (inferred)) [compound 167]” was run?
**A.** The value was “A (0.7 or more)”.
